Measured values from PMC8287952, “PARP1 and CHK1 coordinate PLK1 enzymatic activity during the DNA damage response to promote homologous recombination-mediated repair” (Nucleic Acids Research, 2021).

Molecular target: T1, HIS-PLK1 (UniProt P53350 1-603)
T1 construct: Polo-like kinase 1 (PLK1), HIS tagged, expressed in bacteria via pET28a; also called HIS tagged PLK1; source: bacterially produced (pET28a system)
Assay: pull-down; GST-CHK1 (insect cells) as bait, HIS-PLK1 (bacterial) as prey; 1 μg of each in NETN buffer (20 mM Tris–HCl pH 8.0, 0.15 M NaCl, 1 mM EDTA, 0.5% NP-40), 4°C overnight; glutathione-sepharose beads; immunoblotting
Conditions: both partners purified

T1 sequence (P53350 whole entry): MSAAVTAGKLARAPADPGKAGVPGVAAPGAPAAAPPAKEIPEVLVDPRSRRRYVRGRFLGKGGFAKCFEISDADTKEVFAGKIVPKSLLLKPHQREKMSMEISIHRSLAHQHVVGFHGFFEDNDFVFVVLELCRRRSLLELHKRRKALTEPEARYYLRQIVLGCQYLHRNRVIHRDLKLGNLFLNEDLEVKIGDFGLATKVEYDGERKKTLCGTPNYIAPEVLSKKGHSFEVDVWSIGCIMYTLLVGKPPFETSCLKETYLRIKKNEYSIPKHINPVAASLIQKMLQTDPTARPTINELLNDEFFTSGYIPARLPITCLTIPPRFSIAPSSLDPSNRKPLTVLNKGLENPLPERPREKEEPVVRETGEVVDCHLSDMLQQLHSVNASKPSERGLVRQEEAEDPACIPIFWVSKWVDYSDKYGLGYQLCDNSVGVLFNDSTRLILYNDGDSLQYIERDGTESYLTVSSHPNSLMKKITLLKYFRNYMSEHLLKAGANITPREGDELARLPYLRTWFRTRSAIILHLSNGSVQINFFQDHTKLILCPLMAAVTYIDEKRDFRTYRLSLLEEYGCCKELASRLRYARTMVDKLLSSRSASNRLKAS

- binding result: binds
B1: Recombinant human active protein GST-CHK1 (enzyme, UniProt O14757 1-476, looked up)
chain: MAVPFVEDWDLVQTLGEGAYGEVQLAVNRVTEEAVAVKIVDMKRAVDCPENIKKEICINKMLNHENVVKFYGHRREGNIQYLFLEYCSGGELFDRIEPDIGMPEPDAQRFFHQLMAGVVYLHGIGITHRDIKPENLLLDERDNLKISDFGLATVFRYNNRERLLNKMCGTLPYVAPELLKRREFHAEPVDVWSCGIVLTAMLAGELPWDQPSDSCQEYSDWKEKKTYLNPWKKIDSAPLALLHKILVENPSARITIPDIKKDRWYNKPLKKGAKRPRVTSGGVSESPSGFSKHIQSNLDFSPVNSASSEENVKYSSSQPEPRTGLSLWDTSPSYIDKLVQGISFSQPTCPDHMLLNSQLLGTPGSSQNPWQRLVKRMTRFFTKLDADKSYQCLKETCEKLGYQWKKSCMNQVTISTTDRRNNKLIFKVNLLEMDDKILVDFRLSKGDGLEFKRHFLKIKGKLIDIVSSQKIWLPAT
notes: Human checkpoint kinase CHK1, recombinant active protein; source: bought: R&D Systems (1630-KS-010), produced in insect cells
